The results in this text go back to PMC7618119.

In experiment [1] the target is human μ-opioid receptor (AtT20FlpInMOR cells) (human) (UniProt P35372).
For experiment [2], the target named is human μ-opioid receptor-RlucII (human) (UniProt P35372).
Experiment [3] concerns the target rat HA-μ-opioid receptor (rat) (UniProt P33535).
UniProt P33535, sequence (P33535 whole entry): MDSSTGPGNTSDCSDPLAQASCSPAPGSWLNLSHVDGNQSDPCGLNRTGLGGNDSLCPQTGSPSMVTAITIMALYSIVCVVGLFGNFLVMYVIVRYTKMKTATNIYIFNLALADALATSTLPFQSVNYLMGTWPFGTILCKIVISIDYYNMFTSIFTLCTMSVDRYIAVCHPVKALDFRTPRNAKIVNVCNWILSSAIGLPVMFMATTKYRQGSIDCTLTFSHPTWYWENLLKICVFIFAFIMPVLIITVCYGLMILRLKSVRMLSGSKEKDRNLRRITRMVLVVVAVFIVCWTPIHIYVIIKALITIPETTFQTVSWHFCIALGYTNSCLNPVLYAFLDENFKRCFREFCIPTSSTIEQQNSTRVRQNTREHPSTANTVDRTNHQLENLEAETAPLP

For “[D-Ala^2, N-MePhe^4, Gly-ol]-enkephalin (peptide)”, in experiment [1], the apparent rate constant of dissociation (koff): decay of the membrane potential response to the EC75 concentration after naloxone 10 μM, AtT20 cells is greater than 0.126 s⁻¹; the apparent rate of dissociation (t1/2): decay of the membrane potential response to the EC75 concentration after naloxone 10 μM, AtT20 cells was less than 5.5 s; the membrane potential dye fluorescence (hyperpolarisation) in μ-opioid receptor-expressing AtT20 cells, agonist pEC50, first set of experiments (log M (printed under pEC50)) was -7.98; the membrane potential dye fluorescence (hyperpolarisation) in μ-opioid receptor-expressing AtT20 cells, agonist pEC50, second set of experiments (log M (printed under pEC50)) is -8.12. In experiment [2], this substance yielded a β-arrestin 2 translocation BRET (μ-opioid receptor-RlucII with β-arrestin-2-GFP) in HEK293T cells, agonist pEC50, first set (log M (printed under pEC50)) of -6.12 and a β-arrestin 2 translocation BRET (μ-opioid receptor-RlucII with β-arrestin-2-GFP) in HEK293T cells, agonist pEC50, second set (log M (printed under pEC50)) of -6.33. In experiment [3], this substance displayed a Gi protein activation BRET (decrease of BRET between Gαi1-RlucII and GFP10-Gγ2) in HEK293T cells, agonist pEC50, first set (log M (printed under pEC50)) of -6.82; a Gi protein activation BRET (decrease of BRET between Gαi1-RlucII and GFP10-Gγ2) in HEK293T cells, agonist pEC50, second set (log M (printed under pEC50)) of -6.99.
